Among the data in the supplement of paper PMC10126150 are switch fluorescence ratio values, retold here.

± gives the standard deviation of the averaged measurements.

This data set has as its system ATP. Nature of the data set: switch fluorescence ratio, 500 uM ATP over buffer (Cy3 cluster intensity, sum of 5 cycles each) (fold (ratio)); higher = stronger signal-on switching upon ATP binding; sequences stand for … in TCGTCGGCAGCGTCAGATGTGTATAAGAGACAGTTTTTTTTTTTTTTTTTTTTTTTTT…TC. The note with it: aptamer strand: ATP DNA aptamer (quencher-CACCTGGGGGAGTATTGCGGAGGAAGG + anchor), 100 nM annealed; ATP concentration: 500 uM. In outline:
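Cy3-labelled switching-strand clusters on a modified Illumina MiSeq flow-cell were annealed to 100 nM quencher-labelled ATP aptamer, imaged in selection buffer, then imaged after 15 min with 500 uM ATP at 22 °C. Five buffer/ATP cycles ran, with NaOH stripping and re-annealing between them. The fluorescence ratio is summed target-cycle over summed buffer-cycle Cy3 intensity per cluster, averaged per switch-domain sequence. Clusters outside 100-1000 RFU were excluded.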
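Note: ATP exposure 15 min at 22 °C before imaging.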

AAAAAAAAGC: the switch fluorescence ratio turned out to be 1.03 ± 0.038. For the sequence AAAAAAAGGA, the switch fluorescence ratio was 1.01 ± 0.021. In the case of AAAAAAAGGC it was 0.998 ± 0.042; in that of AAAAAAATCG, 1.01 ± 0.028.

Take AAAAAAATTT: the switch fluorescence ratio was determined as 1 ± 0.029. For the sequence AAAAAAGTGC, the switch fluorescence ratio was 1.04 ± 0.051. Take AAAAAAGTTC: the switch fluorescence ratio came to 0.984 ± 0.022. For the sequence AAAAAATACG, the switch fluorescence ratio stood at 1.09 ± 0.091.

Turning to AAAAAATAG, the switch fluorescence ratio was determined as 0.985 ± 0.013. In the case of AAAAAATTAG it was 0.996 ± 0.05; in that of AAAAAATTAT, 1.03 ± 0.087; in that of AAAAACGCTA, 1.14 ± 0.026. In the case of AAAAACTAGT, the switch fluorescence ratio turned out to be 1.04 ± 0.035. As to AAAAACTTGT, the switch fluorescence ratio is 1.03 ± 0.034.

For AAAAAGAAGA, the switch fluorescence ratio was found to be 0.976 ± 0.033. For the sequence AAAAAGCGGT, the switch fluorescence ratio was found to be 0.984 ± 0.029. In the case of AAAAAGCTCG it was 0.985 ± 0.064; in that of AAAAAGGGGT, 1.15 ± 0.34; in that of AAAAAGGTTA, 0.998 ± 0.025. AAAAAGTCAT: the switch fluorescence ratio came to 0.967 ± 0.021. For AAAAATATTT, the switch fluorescence ratio amounted to 1.61 ± 0.86. Regarding AAAAATCGAG, the switch fluorescence ratio was determined as 1.0015 ± 0.00019. With AAAAATCGGT, the switch fluorescence ratio is 0.996 ± 0.044. In the case of AAAAATGCTT it was 1.02 ± 0.066; in that of AAAAATGGGG, 0.972 ± 0.0098; in that of AAAAATGGGT, 1 ± 0.016. Consider AAAAATGGTT, for which the switch fluorescence ratio is 1.02 ± 0.014.

On to AAAACAAATA, for which the switch fluorescence ratio was found to be 0.9968 ± 0.0089.

On to AAAACAAGGA, for which the switch fluorescence ratio worked out at 1.01 ± 0.041.

On to AAAACAGCCG, for which the switch fluorescence ratio amounted to 0.957 ± 0.1. With AAAACCAGAC, the switch fluorescence ratio is 1.53 ± 0.078.

As for AAAACGAAAT, the switch fluorescence ratio was determined as 1.02 ± 0.032. Regarding AAAACGAATG, the switch fluorescence ratio is 1.05 ± 0.065.

For AAAACGGATT, the switch fluorescence ratio was determined as 0.977 ± 0.014. In the case of AAAACGTGGG it was 1.02 ± 0.022; in that of AAAACTCCGA, 1.07 ± 0.097; in that of AAAACTTCTT, 1 ± 0.013. In the case of AAAACTTTGC, the switch fluorescence ratio worked out at 1.02 ± 0.039. In the case of AAAAGAATGT it was 0.993 ± 0.021; in that of AAAAGACCCT, 1.04 ± 0.071; in that of AAAAGACGGG, 1.03 ± 0.022. On to AAAAGAGGGG, for which the switch fluorescence ratio worked out at 1 ± 0.031. Take AAAAGATCAT: the switch fluorescence ratio was 0.999 ± 0.012. For the sequence AAAAGGACGG, the switch fluorescence ratio came out at 1.044 ± 0.0036.

AAAAGGAG: the switch fluorescence ratio was found to be 1.01 ± 0.016. As to AAAAGGAGGG, the switch fluorescence ratio was found to be 0.999 ± 0.013. As for AAAAGGGCGC, the switch fluorescence ratio turned out to be 1.03 ± 0.045. Regarding AAAAGGGGG, the switch fluorescence ratio amounted to 0.976 ± 0.018. AAAAGGGGGT: the switch fluorescence ratio was 1.02 ± 0.049. In the case of AAAAGGGGTC it was 0.9959 ± 0.0053; in that of AAAAGGGTCT, 1.02 ± 0.024.

For AAAAGGTTAT, the switch fluorescence ratio was determined as 1.02 ± 0.027.

On to AAAAGTAATT, for which the switch fluorescence ratio amounted to 0.985 ± 0.021. As to AAAAGTAGTT, the switch fluorescence ratio is 1.01 ± 0.038. In the case of AAAAGTGTTT it was 0.99 ± 0.033; in that of AAAATAATGG, 0.998 ± 0.04; in that of AAAATACTAT, 1.02 ± 0.026.

Consider AAAATAGTGT, for which the switch fluorescence ratio amounted to 1.013 ± 0.01. In the case of AAAATATGCC it was 1.02 ± 0.026; in that of AAAATATGGT, 1.01 ± 0.033.

Regarding AAAATCTGTT, the switch fluorescence ratio worked out at 1.02 ± 0.061. AAAATGCGCA: the switch fluorescence ratio turned out to be 1.02 ± 0.037. As for AAAATGCGGA, the switch fluorescence ratio is 0.9951 ± 0.003.

Consider AAAATGGCGT, for which the switch fluorescence ratio was 0.9694 ± 0.004. For the sequence AAAATGGGGT, the switch fluorescence ratio worked out at 1.02 ± 0.052. Turning to AAAATGGTAT, the switch fluorescence ratio was 1.01 ± 0.038. For AAAATGGTGT, the switch fluorescence ratio is 1.002 ± 0.0083. With AAAATGGTTT, the switch fluorescence ratio came out at 0.994 ± 0.037. In the case of AAAATGTTCC, the switch fluorescence ratio amounted to 1.19 ± 0.025. AAAATTAACG: the switch fluorescence ratio amounted to 1.04 ± 0.028. As for AAAATTATCT, the switch fluorescence ratio came to 1.01 ± 0.021. In the case of AAAATTATGG, the switch fluorescence ratio was 0.968 ± 0.02.

As for AAAATTCTGG, the switch fluorescence ratio is 0.973 ± 0.034.

Regarding AAAATTGCAT, the switch fluorescence ratio is 0.993 ± 0.021. As to AAAATTTAAT, the switch fluorescence ratio is 1.01 ± 0.016. As for AAAATTTAGG, the switch fluorescence ratio is 0.986 ± 0.03. AAACAAAAAT: the switch fluorescence ratio worked out at 1.01 ± 0.012.

Take AAACAATGTG: the switch fluorescence ratio is 0.972 ± 0.013. For AAACAGAATG, the switch fluorescence ratio was determined as 0.975 ± 0.014. In the case of AAACAGGTTG, the switch fluorescence ratio amounted to 1.05 ± 0.019.

Take AAACATGGAG: the switch fluorescence ratio worked out at 1 ± 0.019. Turning to AAACATGGTG, the switch fluorescence ratio turned out to be 1.03 ± 0.022. Turning to AAACCCTGAG, the switch fluorescence ratio came out at 1.14 ± 0.2. For the sequence AAACGATGTT, the switch fluorescence ratio was 1.02 ± 0.055. In the case of AAACGCAACC, the switch fluorescence ratio was 1.57 ± 0.089.

As for AAACGCCTGC, the switch fluorescence ratio is 1.08 ± 0.026. With AAACGGAG, the switch fluorescence ratio is 1.007 ± 0.0081.

Consider AAACGGATGG, for which the switch fluorescence ratio is 0.968 ± 0.016. Consider AAACGGATTC, for which the switch fluorescence ratio came out at 0.999 ± 0.052. In the case of AAACGGGGGG, the switch fluorescence ratio is 0.99 ± 0.024.

For the sequence AAACGGGGTA, the switch fluorescence ratio stood at 1.01 ± 0.033. With AAACGGGTTC, the switch fluorescence ratio worked out at 1.01 ± 0.036. Consider AAACGGTAGC, for which the switch fluorescence ratio was determined as 1.07 ± 0.017.

AAACGTACTT: the switch fluorescence ratio is 1.58 ± 0.086. For the sequence AAACGTGAGT, the switch fluorescence ratio came to 0.985 ± 0.01. Consider AAACTAGCGG, for which the switch fluorescence ratio is 1.02 ± 0.016.

AAACTAGCTG: the switch fluorescence ratio was found to be 1 ± 0.025. Regarding AAACTCAACG, the switch fluorescence ratio is 1.08 ± 0.031. With AAACTCTCCA, the switch fluorescence ratio came out at 1.04 ± 0.02.

Turning to AAACTGGAT, the switch fluorescence ratio turned out to be 1.01 ± 0.033. For the sequence AAACTGGGAT, the switch fluorescence ratio amounted to 1.01 ± 0.033. Take AAACTGTACT: the switch fluorescence ratio came out at 1.425 ± 0.0099. AAACTTAGCA: the switch fluorescence ratio was 1.02 ± 0.012. Take AAACTTCGGG: the switch fluorescence ratio amounted to 1 ± 0.026. In the case of AAACTTGGGG, the switch fluorescence ratio is 1 ± 0.035.

Regarding AAAGAAAGGT, the switch fluorescence ratio came to 1.02 ± 0.024.

For AAAGAAGTGG, the switch fluorescence ratio turned out to be 0.959 ± 0.027. AAAGAATTCA: the switch fluorescence ratio was found to be 1.05 ± 0.051. For AAAGACGCGG, the switch fluorescence ratio was found to be 0.992 ± 0.015. Turning to AAAGACGTTT, the switch fluorescence ratio came out at 1 ± 0.016. As to AAAGAGCAAG, the switch fluorescence ratio turned out to be 1.11 ± 0.034.

Consider AAAGATAGGC, for which the switch fluorescence ratio is 0.954 ± 0.072.

On to AAAGATCGGA, for which the switch fluorescence ratio was found to be 0.983 ± 0.038.

For the sequence AAAGATTGAC, the switch fluorescence ratio was found to be 1.01 ± 0.08. In the case of AAAGCACTAG, the switch fluorescence ratio turned out to be 1.11 ± 0.055. On to AAAGCACTTT, for which the switch fluorescence ratio came out at 1.099 ± 0.0022. In the case of AAAGCCCGCG, the switch fluorescence ratio was found to be 0.961 ± 0.066.

Take AAAGCGGATT: the switch fluorescence ratio came out at 1 ± 0.018. In the case of AAAGCTCGCT it was 0.973 ± 0.015; in that of AAAGCTTTGG, 0.963 ± 0.021.
